Assay results published in FireProtDB.
Where “and” joins values, the source holds several entries; their conditions need not be identical. Equal entries are not always repeated.

Settings: whole UniProt chain shown
[1] = Enterobacteria phage T4, pH 8, Thermal, DSC, Tris-HCl 10 mM, NaCl 200 mM, reversible: yes
[2] = Drosophila melanogaster, pH 6.5, 25 °C, Urea, Fluorescence, sodium phosphate 20 mM
[3] = Canis lupus familiaris, pH 4.5, 25 °C, GdnHCl, CD, acetate 50 mM, CaCl2 2 mM
[4] = Canis lupus familiaris, pH 4.5, Thermal, DSC, Sodium acetate/glycine-HCl 50 mM/50 mM/, transition: 3, reversible: yes
[5] = Drosophila melanogaster, pH 6, 5 °C, GdnHCl, CD, sodium phosphate 50 mM, reversible: yes
[6] = Drosophila melanogaster, pH 6, 5 °C, GdnHCl, Fluorescence, sodium phosphate 50 mM, Na2SO4 0.4 M, reversible: yes
[7] = Drosophila melanogaster, pH 6, Thermal, CD, sodium phosphate 50 mM, Na2SO4 0.4 M, reversible: yes
[8] = Dictyostelium discoideum, pH 7.5, Thermal, DSC, HEPES-NaOH 50 mM, reversible: no
[9] = Dictyostelium discoideum, pH 7.5, Thermal, DSC, HEPES-NaOH 50 mM, transition: 3, reversible: no
[10] = Dictyostelium discoideum, pH 7.5, Thermal, DSC, HEPES-NaOH 50 mM, transition: 3, reversible: yes
[11] = Dictyostelium discoideum, pH 8, 25 °C, Urea, Absorbance, Tris-acetate 83 mM, reversible: yes
[12] = Bos taurus, pH 7.5, 25 °C, Urea, CD, Tris-HCl 20 mM, reversible: yes
[13] = Bos taurus, pH 9, 25 °C, Urea, CD, Tris-HCl 20 mM, reversible: yes
[14] = Cavia porcellus, pH 7.4, 25 °C, Urea, CD, NaPi 0.01 M, NaCl 0.15 M, reversible: Yes
[15] = Cavia porcellus, pH 7.4, Thermal, DSC, NaPi 0.01 M, NaCl 0.15 M, reversible: No
[16] = Bos taurus, pH 6.8, 27 °C, GdnHCl, Absorbance, Sodium phosphate 50 mM, NaCl 50 mM, reversible: no
[17] = Bos taurus, pH 7.2, Thermal, DSC, phosphate 20 mM, transition: 3, reversible: no
[18] = Bos taurus, pH 7, 25 °C, GdnHCl, Absorbance, MOPS 30 mM, reversible: yes
[19] = Bos taurus, pH 7, 25 °C, GdnHCl, Fluorescence, MOPS 30 mM, reversible: yes
[20] = Bos taurus, pH 7, 25 °C, GdnSCN, Fluorescence, MOPS 30 mM, reversible: YES
[21] = Bos taurus, pH 7.2, 25 °C, Urea, CD, Phosphate 20 mM, reversible: yes
[22] = Bos taurus, pH 7.4, Thermal, DSC, sodium phosphate 50 mM, reversible: yes
[23] = Enterobacteria phage 434, pH 6, 20 °C, Urea, Fluorescence, KH2PO4 25 mM, KCl 100 mM, reversible: yes(>95%)
[24] = Enterobacteria phage 434, pH 6, 20 °C, Urea, far-UV CD, KH2PO4 25 mM, KCl 100 mM, reversible: yes(>95%)
[25] = Enterobacteria phage 434, pH 7, Thermal, DSC, K-phosphate 20 mM
[26] = Bos taurus, pH 7.4, 23 °C, GdnHCl, CD, Sodium phosphate 200 mM, reversible: yes

B1: Single-stranded DNA-binding protein wild type, P03695 (protein)
chain: MFKRKSTAELAAQMAKLNGNKGFSSEDKGEWKLKLDNAGNGQAVIRFLPSKNDEQAPFAILVNHGFKKNGKWYIETCSSTHGDYDSCPVCQYISKNDLYNTDNKEYSLVKRKTSYWANILVVKDPAAPENEGKVFKYRFGKKIWDKINAMIAVDVEMGETPVDVTCPWEGANFVLKVKQVSGFSNYDESKFLNQSAIPNIDDESFQKELFEQMVDLSEMTSKDKFKSFEELNTKFGQVMGTAVMGGAAATAAKKADKVADDLDAFNVDDFNTKTEDDFMSSSSGSSSSADDTDLDDLLNDL
Tm [1]: 49 °C
unfolding enthalpy (calorimetric) [1]: 84 kcal/mol

B2: General odorant-binding protein lush wild type, O02372 (protein)
chain: MKHWKRRSSAVFAIVLQVLVLLLPDPAVAMTMEQFLTSLDMIRSGCAPKFKLKTEDLDRLRVGDFNFPPSQDLMCYTKCVSLMAGTVNKKGEFNAPKALAQLPHLVPPEMMEMSRKSVEACRDTHKQFKESCERVYQTAKCFSENADGQFMWP
denaturant m value [2]: 1.24 kcal/mol/M and 1.76 kcal/mol/M and 1.77 kcal/mol/M
denaturant midpoint (higher = more stable) [2]: 2.39 M and 2.98 M and 4.11 M
unfolding free energy [2]: 3.02 kcal/mol and 5.26 kcal/mol and 7.35 kcal/mol

B3: Lysozyme C wild type, P00708 (protein)
chain: KDIPRCELVKILRRHGFEGFVGKTVANWVCLVKHESGYRTTAFNNNGPNSRDYGIFQINSKYWCNDGKTRGSKNACNINCSKLRDDNIADDIQCAKKIAREARGLTPWVAWKKYCQGKDLSSYVRGC
Tm (Columba livia, pH 6, Thermal, CD, MES 50 mM, potassium chloride 100 mM, transition: 3): 70 °C

B4: Lysozyme C, milk isozyme wild type, P81708 (protein)
chain: KIFSKCELARKLKSMGMDGFHGYSLANWVCMAEYESNFNTQAFNGRNSNGSSDYGIFQLNSKWWCKSNSHSSANACNIMCSKFLDDNIDDDIACAKRVVKDPNGMSAWVAWVKHCKGKDLSKYLASCNL
denaturant m value [3]: 2.43 kcal/mol/M and 1 kcal/mol/M
unfolding free energy [3]: 2.84 kcal/mol and 5.27 kcal/mol
denaturant m value (Canis lupus familiaris, pH 4.5, 25 °C, GdnHCl, CD, acetate 50 mM): 2.48 kcal/mol/M and 1 kcal/mol/M
Tm [4]: 39 °C
unfolding enthalpy (calorimetric) [4]: 44.6 kcal/mol

B5: Growth factor receptor-bound protein 2 wild type, Q08012 (protein)
chain: MEAIAKHDFSATADDELSFRKTQILKILNMEDDSNWYRAELDGKEGLIPSNYIEMKNHDWYYGRITRADAEKLLSNKHEGAFLIRISESSPGDFSLSVKCPDGVQHFKVLRDAQSKFFLWVVKFNSLNELVEYHRTASVSRSQDVKLRDMIPEEMLVQALYDFVPQESGELDFRRGDVITVTDRSDENWWNGEIGNRKGIFPATYVTPYHS
denaturant m value [5]: 3.48 kcal/mol/M
unfolding free energy [5]: 1.47 kcal/mol
denaturant m value [6]: 1.39 kcal/mol/M
unfolding free energy [6]: 2.18 kcal/mol
Tm [7]: 60.1 °C
unfolding enthalpy (van 't Hoff) [7]: 33.1 kcal/mol

B6: Nucleoside diphosphate kinase, mitochondrial wild type, P34093 (protein)
chain: MFSRFARAFPKILASGASQRTFATVQKAFANPTSKKLIVGSSLLIGSAFATTSFVACENKSVPLVGLPGTNQERSFIAIKVSSTQRRLIGEIIARFEKKGFKLVGIKILVPTPEHAAKHYEDLNKKPFFNGLVKFFSSGAVVAMVFEGKDVVRTGRVLIGATDPSQSAPGTIRFDLCIETGRNIIHGSDSNESAAHEIALWFKEDEIANWVSTNPVYEKM
Tm [8]: 61.8 °C
unfolding enthalpy (calorimetric) [8]: 785 kcal/mol
Tm [9]: 55.7 °C
unfolding enthalpy (calorimetric) [9]: 319 kcal/mol
Tm [10]: 37.5 °C
unfolding enthalpy (calorimetric) [10]: 97 kcal/mol
denaturant m value [11]: 1.71 kcal/mol/M
unfolding free energy [11]: 5.42 kcal/mol

B7: Pepsin A wild type, P00792 (protein)
chain: MSVVKIPLVKKKSLRQNLIENGKLKEFMRTHKYNLGSKYIREAATLVSEQPLQNYLDTEYFGTIGIGTPAQDFTVIFDTGSSNLWVPSIYCSSEACTNHNRFNPQDSSTYEATSETLSITYGTGSMTGILGYDTVQVGGISDTNQIFGLSETEPGSFLYYAPFDGILGLAYPSISSSGATPVFDNIWDQGLVSQDLFSVYLSSNEESGSVVIFGDIDSSYYSGSLNWVPVSVEGYWQITVDSITMNGESIACSDGCQAIVDTGTSLLAGPTTAISNIQSYIGASEDSSGEVVISCSSIDSLPDIVFTINGVQYPVPPSAYILQSNGICSSGFEGMDISTSSGDLWILGDVFIRQYFTVFDRGNNQIGLAPVA
unfolding free energy [12]: 6.36 kcal/mol
unfolding free energy [13]: 2.72 kcal/mol

B8: Spermadhesin-1 wild type, P29392 (protein)
chain: MKLSSVIPWALLLSTATVDSMDWLPRNTNCGGILKEESGVIATYYGPKTNCVWTIQMPPEYHVRVSIQYLQLNCNKESLEIIDGLPGSPVLGKICEGSLMDYRSSGSIMTVKYIREPEHPASFYEVLYFQDPQA
Tm (Bos taurus, pH 7, Thermal, DSC, sodium phosphate 10 mM, reversible: no): 78.6 °C

B9: wild type, Q8VD40 (protein)
chain: MDGDGDPESVGQPEEVSPEEACAEEACAEGDRPGEEEEEEQEELEEAAYLAELPEALLLRVLAQLPAAELVQACRLVCLRWKELVDGAPLWLLKCQQEGLVPEGCGEEEERDHWQRFYFLSKRRRNLLRNPCGEEDLEGWCDVEHGGDGWRVEEIPGDSGVEFPQDDSVRKYFASSFEWCRKAQVVDLQAEGYWEELLDTTQPAIVAKDWYSGRSDAGCLYELSVKLLSEHEDVLAEFNTGQVPVSPDSEEGGWTEISHTFTDYGPGVRFVRFEHGGQDAVYWKGWFGARVTNSSVWVEP
denaturant m value [14]: 0.79 kcal/mol/M
unfolding free energy [14]: 2.64 kcal/mol
Tm [15]: 57 °C
unfolding enthalpy (calorimetric) [15]: 141 kcal/mol

B10: Beta-crystallin B2 wild type, P02522 (protein)
chain: MASDHQTQAGKPQPLNPKIIIFEQENFQGHSHELNGPCPNLKETGVEKAGSVLVQAGPWVGYEQANCKGEQFVFEKGEYPRWDSWTSSRRTDSLSSLRPIKVDSQEHKITLYENPNFTGKKMEVIDDDVPSFHAHGYQEKVSSVRVQSGTWVGYQYPGYRGLQYLLEKGDYKDSGDFGAPQPQVQSVRRIRDMQWHQRGAFHPSS
Tm (Bos taurus, pH 7.2, Thermal, fluorescence, sodium phospahte 20 mM, NaCl, transition: 2): 56.8 °C

B11: Chymosin wild type, P00794 (protein)
chain: MRCLVVLLAVFALSQGAEITRIPLYKGKSLRKALKEHGLLEDFLQKQQYGISSKYSGFGEVASVPLTNYLDSQYFGKIYLGTPPQEFTVLFDTGSSDFWVPSIYCKSNACKNHQRFDPRKSSTFQNLGKPLSIHYGTGSMQGILGYDTVTVSNIVDIQQTVGLSTQEPGDVFTYAEFDGILGMAYPSLASEYSIPVFDNMMNRHLVAQDLFSVYMDRNGQESMLTLGAIDPSYYTGSLHWVPVTVQQYWQFTVDSVTISGVVVACEGGCQAILDTGTSKLVGPSSDILNIQQAIGATQNQYGEFDIDCDNLSYMPTVVFEINGKMYPLTPSAYTSQDQGFCTSGFQSENHSQKWILGDVFIREYYSVFDRANNLVGLAKAI
unfolding free energy [12]: 6.45 kcal/mol
unfolding free energy [13]: 3.56 kcal/mol and 3.47 kcal/mol

B12: Gamma-crystallin B wild type, P02526 (protein)
chain: MGKITFYEDRGFQGHCYECSSDCPNLQPYFSRCNSIRVDSGCWMLYERPNYQGHQYFLRRGDYPDYQQWMGFNDSIRSCRLIPQHTGTFRMRIYERDDFRGQMSEITDDCPSLQDRFHLTEVHSLNVLEGSWVLYEMPSYRGRQYLLRPGEYRRYLDWGAMNAKVGSLRRVMDFY
denaturant m value [16]: 1.3 kcal/mol/M and 0.9 kcal/mol/M
denaturant midpoint (higher = more stable) [16]: 3 M and 1.3 M
unfolding enthalpy (calorimetric) (Bos taurus, pH 7.2, Thermal, DSC, phosphate 20 mM, reversible: no): 82.3 kcal/mol and 149 kcal/mol and 90 kcal/mol
unfolding enthalpy (calorimetric) [17]: 126 kcal/mol and 148 kcal/mol
unfolding enthalpy (van 't Hoff) [17]: 110 kcal/mol and 71 kcal/mol

B13: Cytochrome b5 wild type, P00171 (protein)
chain: MAEESSKAVKYYTLEEIQKHNNSKSTWLILHYKVYDLTKFLEEHPGGEEVLREQAGGDATENFEDVGHSTDARELSKTFIIGELHPDDRSKITKPSESIITTIDSNPSWWTNWLIPAISALFVALIYHLYTSEN
unfolding free energy (Bos taurus, pH 7, 10 °C, GdnHCl, Fluorescence, MOPS 30 mM, reversible: yes): 2.77 kcal/mol
denaturant midpoint (higher = more stable) (Bos taurus, pH 7, 25 °C, GdmSCN, UV/visible spectrophotometer, MOPS 30mM): 1.52 M
denaturant m value [18]: 2.14 kcal/mol/M
denaturant midpoint (higher = more stable) [18]: 3.05 M
unfolding free energy [18]: 6.57 kcal/mol
denaturant m value [19]: 2.05 kcal/mol/M
denaturant midpoint (higher = more stable) [19]: 2.99 M
unfolding free energy [19]: 6.09 kcal/mol
denaturant m value [20]: 2.4 kcal/mol/M and 1.7 kcal/mol/M
unfolding free energy [20]: 3.2 kcal/mol and 2.7 kcal/mol
unfolding free energy (Bos taurus, pH 7, 25 °C, Thermal, DSC, sodium phosphate 50 mM, reversible: yes): 5.98 kcal/mol
Tm (Bos taurus, pH 7, Thermal, Fluorescence, potassium phosphate 50 mM, reversible: YES): 85.5 °C
Tm (Bos taurus, pH 7, Thermal, UV spectroscopy, Sodium phosphate 50 mM, reversible: Yes): 79.4 °C
Tm (Bos taurus, pH 7, Thermal, UV/visible spectrophotometer, Potassium phosphate 50mM): 67.6 °C
denaturant m value [21]: 0.93 kcal/mol/M
unfolding free energy [21]: 6.57 kcal/mol
unfolding enthalpy (van 't Hoff) (Bos taurus, pH 7.2, Thermal, Absorbance, Phosphate 20 mM, reversible: yes): 82.5 kcal/mol and 33.9 kcal/mol
Tm [22]: 70.7 °C
heat capacity change of unfolding [22]: 0.13 kcal/mol/K

B14: Regulatory protein cro wild type, P03036 (protein)
chain: MQTLSERLKKRRIALKMTQTELATKAGVKQQSIQLIEAGVTKRPRFLFEIAMALNCDPVWLQYGTKRGKAA
denaturant m value [23]: 1.05 kcal/mol/M
denaturant midpoint (higher = more stable) [23]: 3.35 M
unfolding free energy [23]: 3.5 kcal/mol
denaturant m value [24]: 1.02 kcal/mol/M
denaturant midpoint (higher = more stable) [24]: 3.5 M
unfolding free energy [24]: 3.6 kcal/mol
Tm [25]: 46.4 °C
unfolding enthalpy (calorimetric) [25]: 53.8 kcal/mol

B15: Thiosulfate sulfurtransferase wild type, P00586 (protein)
chain: MVHQVLYRALVSTKWLAESVRAGKVGPGLRVLDASWYSPGTREARKEYLERHVPGASFFDIEECRDKASPYEVMLPSEAGFADYVGSLGISNDTHVVVYDGDDLGSFYAPRVWWMFRVFGHRTVSVLNGGFRNWLKEGHPVTSEPSRPEPAIFKATLNRSLLKTYEQVLENLESKRFQLVDSRAQGRYLGTQPEPDAVGLDSGHIRGSVNMPFMNFLTEDGFEKSPEELRAMFEAKKVDLTKPLIATCRKGVTACHIALAAYLCGKPDVAIYDGSWFEWFHRAPPETWVSQGKGGKA
denaturant m value [26]: 2.34 kcal/mol/M
unfolding free energy [26]: 3.39 kcal/mol
